Results from US20240026019A1 (Innovent, published 2024).

Assays:
[1] = target: T1, human TNFR2 overexpressed on CHO-S cells (CHOS-hTNFR2) (human, UniProt P20333 23-461); assay: flow cytometry on CHO-S cells overexpressing human TNFR2 (positive control), MFI-FL2-A; unit taken from the axis Conc log(nM)
T1 construct: also called hTNFR2 CHO-S; human TNFR2 molecule overexpressed on CHO-S cells
T1 sequence: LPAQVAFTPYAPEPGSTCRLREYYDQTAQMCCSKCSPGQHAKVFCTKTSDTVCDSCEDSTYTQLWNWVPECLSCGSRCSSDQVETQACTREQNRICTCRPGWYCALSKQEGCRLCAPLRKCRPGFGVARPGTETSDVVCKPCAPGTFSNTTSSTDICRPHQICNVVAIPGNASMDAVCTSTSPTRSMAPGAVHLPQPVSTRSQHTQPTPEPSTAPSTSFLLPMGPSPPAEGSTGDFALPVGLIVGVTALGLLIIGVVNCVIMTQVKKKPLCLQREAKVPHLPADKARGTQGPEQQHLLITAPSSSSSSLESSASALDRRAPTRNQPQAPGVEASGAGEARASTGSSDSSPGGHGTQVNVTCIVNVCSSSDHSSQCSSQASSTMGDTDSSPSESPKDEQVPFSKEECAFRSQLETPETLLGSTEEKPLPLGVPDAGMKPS
Protocol: In the study, the binding of the chimeric antibodies of the present invention, after being diluted in a gradient, to a stable CHO-S cell strain overexpressing human TNFR2 on the surface was assayed by using a flow cytometer. cDNAs encoding human TNFR2 (SEQ ID NO: 60) and cynomolgus monkey TNFR2 (SEQ ID NO: 61) were cloned into pCH01.0 vectors (Invitrogen), which were transfected into CHO-S cells (Invitrogen) to produce CHO-S cells overexpressing human TNFR2 (CHOS-hTNFR2) and CHO-S cells overexpressing cynomolgus monkey TNFR2 (CHOS-cTNFR2).
CHOS-hTNFR2 cells or CHOS-cTNFR2 cells were counted and diluted to 2×10⁶ cells/mL, and added to a U-bottom 96-well plate at 100 μL/well. The mixture was centrifuged at 300 g for 5 min, and the cell medium was removed. The dilutions of the samples (the chimeric antibodies 3C4, 69B1, and 72G8 and the positive control antibody OPI) (the antibodies were subjected to a three-fold serial dilution in PBS from the maximum antibody concentration of 300 nM) were added to the U-plate, and the cells were resuspended at 100 μL/well and left to stand on ice for 30 min. The suspension was centrifuged at 400 g for 5 min, and the supernatant was removed. The cells were washed twice with PBS. The mixture was centrifuged at 300 g for 5 min, and PBS was removed. […]

[2] = target: T1, human TNFR2 overexpressed on CHO-S …; assay: flow cytometry on CHO-S cells overexpressing human TNFR2 (positive control beside the hybridoma antibodies), MFI
Protocol: In the study, the binding of the hybridoma antibodies (3C4, 69B1, and 72G8) of the present invention, after being diluted in a gradient, to a stable CHO-S cell strain overexpressing human TNFR2 on the surface was assayed by using a flow cytometer.
CHOS-hTNFR2 cells or CHOS-cTNFR2 cells were counted and diluted to 2×10⁶ cells/mL, and added to a U-bottom 96-well plate at 100 μL/well. The mixture was centrifuged at 300 g for 5 min, and the cell medium was removed. The dilutions of the samples (the hybridoma antibodies 3C4, 69B1, and 72G8 and the positive control antibody OPI) (the antibodies were subjected to a two-fold serial dilution in PBS from the maximum antibody concentration of 300 nM) were added to the U-plate, and the cells were resuspended at 100 μL/well and left to stand on ice for 30 min. The suspension was centrifuged at 400 g for 5 min, and the supernatant was removed. The cells were washed twice with PBS. The mixture was centrifuged at 300 g for 5 min, and PBS was removed. […] The mixture was centrifuged at 400 g for 5 min, and the supernatant was removed. The cells were washed 3 times with PBS. The cells were resuspended in 200 μL of 1×PBS and assayed by FACS.

[3] = target: T2, TNFR2 on human K562 chronic myeloid leukemia cells and on primary human Treg cells (human, UniProt P20333 23-461); assay: flow cytometry on primary human Treg cells, MFI(FL2); unit taken from the axis Conc log(nM)
T2 construct: whole, on cells; also called K562 cells
T2 sequence (looked up): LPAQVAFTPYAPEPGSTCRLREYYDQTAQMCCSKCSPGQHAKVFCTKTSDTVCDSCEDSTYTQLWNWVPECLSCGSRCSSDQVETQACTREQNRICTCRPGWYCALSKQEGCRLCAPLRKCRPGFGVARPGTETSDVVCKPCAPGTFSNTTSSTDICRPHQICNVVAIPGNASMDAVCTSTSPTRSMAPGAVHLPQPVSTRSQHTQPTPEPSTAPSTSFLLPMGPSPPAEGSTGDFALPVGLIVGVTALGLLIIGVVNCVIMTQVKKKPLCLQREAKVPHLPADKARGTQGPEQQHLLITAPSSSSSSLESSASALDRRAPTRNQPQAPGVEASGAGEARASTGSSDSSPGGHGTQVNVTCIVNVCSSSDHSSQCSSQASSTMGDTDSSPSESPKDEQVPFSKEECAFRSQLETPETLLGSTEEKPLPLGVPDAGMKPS
Protocol: Tregs were prepared as follows: Human PBMC cells ([…], PB005F) were thawed, CD4⁺ CD25⁺ CD127^low cells were sorted by flow cytometry, and Treg cells were isolated. According to CD4⁺:anti-CD3/CD28 Beads=1:1, Dynabeads Human T-Activator CD3/CD28 (Gibco, 11131D) was added, followed by 10 ng/mL recombinant IL2, and the cells were stimulated for 7 days.
Assay steps: The mixture was centrifuged at 400 g for 5 min, and the cell medium was removed. K562 or Treg cells were resuspended in PBS. After counting, the cells were adjusted to a density of 2×10⁶/mL, and the cell suspension was added to a U-bottom 96-well plate at 100 μL/well. The test antibody was added, subjected to a three-fold gradient dilution, and left to stand on ice for 30 min. The mixture was centrifuged at 300 g for 5 min, and the supernatant was removed. The cells were washed once with PBS. The mixture was centrifuged at 300 g for 5 min, and PBS was removed. 100 μL of PE-anti-human Fc antibody (SOUTHERN BIOTECH, 2040-09) diluted at a ratio of 1:200 was added to each well. The mixture was incubated on ice for 30 min in the dark. The mixture was centrifuged at 400 g for 5 min, and the supernatant was removed. The cells were washed twice with PBS. The cells were resuspended in 100 μL of PBS and assayed by using a flow cytometer (BD, ACCURIC6 plus).

EC50 [1]: 2.62 nM
EC50 (read off the curve) [2]: ~2 nM
EC50 [3]: 0.0738 nM
B1: positive control antibody OPI (humanized antibody SBT-002e in WO 2017083525) (antibody, V domains shown)
VH: QVTLKESGPALVKPTQTLTLTCTFSGFSLSTSGMGVGWIRQPPGKALEWLAHIWWDDDKFYNPSLKSRLTISKDTSKNQVVLTMTNMDPVDTATYYCARLTGTRYFDYWGQGTTVTVSS
VL: DVQMTQSPSSLSASVGDRVTITCKASQDINKFIAWYQQKPGKAPKLLIHYTSTLQPGIPSRFSGSGSGRDYTFTISSLQPEDIATYYCLQYGNLWTFGGGTKVEIK
notes: also called Benchmark OPI
